In PMC4737144 one finds binding signal (fold higher Hfq needed than for GlmZ) and Kd data, which are given here for one substance.

The Kd is the equilibrium constant for the complex coming apart.

For one data set, the system named is Hfq (Escherichia coli). Description: EMSA.
The subject of data set [1] is Strep-RapZ (Escherichia coli). The experiment in a line: EMSA.

In the data set on Hfq (Escherichia coli), GlmY gave a binding signal (fold higher Hfq needed than for GlmZ) of 10. The substance also had a Kd in data set [1] of 30 nM.
